System: T1, MprA(D51E) D51E (Corynebacterium glutamicum ATCC 13032), ORF:c49de587
T1 sequence: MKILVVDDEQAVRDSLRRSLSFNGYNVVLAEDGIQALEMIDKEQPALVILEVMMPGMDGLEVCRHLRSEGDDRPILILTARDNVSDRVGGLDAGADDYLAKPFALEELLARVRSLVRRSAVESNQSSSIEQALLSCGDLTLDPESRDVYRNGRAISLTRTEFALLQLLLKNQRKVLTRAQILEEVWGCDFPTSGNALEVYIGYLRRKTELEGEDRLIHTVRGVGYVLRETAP
Assay: EMSA
Conditions: Buffer P: 50 mM Tris-HCl pH 7.5, 50 mM KCl, 10 mM MgCl2, 0.5 mM EDTA, 10% glycerol; 30 min at 20 C; DNA 25-107 nM, protein 0-64-fold molar excess; 6% native …

For “CGATACCCTTTTCGTCTTCCAGTCCGTGACAGACTTCCTCCCAATTAAGACGTCCACGCGTTGGAACATATTTCACTTATGCTAACACCTCTTAAGCATAAAGAAGCCAGTTACCTCCTCATTTTAAGAGAAGATAACTGGCTCTTGTTAAATTCTTACCTACAAAAGGTTGTAGGCGATGAATTTAAGGTTTAGAACTGCTCTACGTCCACGAGACCGAGCTGTGCTGCCTTAACCAGACGGCGTGGGATGCGAACGGTCTGACCGTCGATCTTGACCTCCTGAAGGGCGACATTGTCG (double strand) [mprA promoter]”, the binding was “binds”.

— paper PMC12113857
